[ ]: non-standard residue; d: D form.
B1: cyclic nNOS β-hairpin peptide D114G (peptide)
peptide: cyclo(THLETTFTGGGTPKTIRVTQ[dP]GQ)
SMILES: CC[C@H](C)[C@@H]1NC(=O)[C@H]([C@@H](C)O)NC(=O)[C@H](CCCCN)NC(=O)[C@@H]2CCCN2C(=O)[C@H]([C@@H](C)O)NC(=O)CNC(=O)CNC(=O)CNC(=O)[C@H]([C@@H](C)O)NC(=O)[C@H](Cc2ccccc2)NC(=O)[C@H]([C@@H](C)O)NC(=O)[C@H]([C@@H](C)O)NC(=O)[C@H](CCC(=O)O)NC(=O)[C@H](CC(C)C)NC(=O)[C@H](Cc2c[nH]cn2)NC(=O)[C@H]([C@@H](C)O)NC(=O)[C@H](CCC(N)=O)NC(=O)CNC(=O)[C@H]2CCCN2C(=O)[C@H](CCC(N)=O)NC(=O)[C@H]([C@@H](C)O)NC(=O)[C@H](C(C)C)NC(=O)[C@H](CCCNC(=N)N)NC1=O
B2: cyclic nNOS β-hairpin peptide D114K (peptide)
peptide: cyclo(THLETTFTGKGTPKTIRVTQ[dP]GQ)
SMILES: CC[C@H](C)[C@@H]1NC(=O)[C@H]([C@@H](C)O)NC(=O)[C@H](CCCCN)NC(=O)[C@@H]2CCCN2C(=O)[C@H]([C@@H](C)O)NC(=O)CNC(=O)[C@H](CCCCN)NC(=O)CNC(=O)[C@H]([C@@H](C)O)NC(=O)[C@H](Cc2ccccc2)NC(=O)[C@H]([C@@H](C)O)NC(=O)[C@H]([C@@H](C)O)NC(=O)[C@H](CCC(=O)O)NC(=O)[C@H](CC(C)C)NC(=O)[C@H](Cc2c[nH]cn2)NC(=O)[C@H]([C@@H](C)O)NC(=O)[C@H](CCC(N)=O)NC(=O)CNC(=O)[C@H]2CCCN2C(=O)[C@H](CCC(N)=O)NC(=O)[C@H]([C@@H](C)O)NC(=O)[C@H](C(C)C)NC(=O)[C@H](CCCNC(=N)N)NC1=O
B3: cyclic nNOS β-hairpin peptide D114P (peptide)
peptide: cyclo(THLETTFTGPGTPKTIRVTQ[dP]GQ)
SMILES: CC[C@H](C)[C@@H]1NC(=O)[C@H]([C@@H](C)O)NC(=O)[C@H](CCCCN)NC(=O)[C@@H]2CCCN2C(=O)[C@H]([C@@H](C)O)NC(=O)CNC(=O)[C@@H]2CCCN2C(=O)CNC(=O)[C@H]([C@@H](C)O)NC(=O)[C@H](Cc2ccccc2)NC(=O)[C@H]([C@@H](C)O)NC(=O)[C@H]([C@@H](C)O)NC(=O)[C@H](CCC(=O)O)NC(=O)[C@H](CC(C)C)NC(=O)[C@H](Cc2c[nH]cn2)NC(=O)[C@H]([C@@H](C)O)NC(=O)[C@H](CCC(N)=O)NC(=O)CNC(=O)[C@H]2CCCN2C(=O)[C@H](CCC(N)=O)NC(=O)[C@H]([C@@H](C)O)NC(=O)[C@H](C(C)C)NC(=O)[C@H](CCCNC(=N)N)NC1=O
B4: cyclic nNOS β-hairpin peptide D114R (peptide)
peptide: cyclo(THLETTFTGRGTPKTIRVTQ[dP]GQ)
SMILES: CC[C@H](C)[C@@H]1NC(=O)[C@H]([C@@H](C)O)NC(=O)[C@H](CCCCN)NC(=O)[C@@H]2CCCN2C(=O)[C@H]([C@@H](C)O)NC(=O)CNC(=O)[C@H](CCCNC(=N)N)NC(=O)CNC(=O)[C@H]([C@@H](C)O)NC(=O)[C@H](Cc2ccccc2)NC(=O)[C@H]([C@@H](C)O)NC(=O)[C@H]([C@@H](C)O)NC(=O)[C@H](CCC(=O)O)NC(=O)[C@H](CC(C)C)NC(=O)[C@H](Cc2c[nH]cn2)NC(=O)[C@H]([C@@H](C)O)NC(=O)[C@H](CCC(N)=O)NC(=O)CNC(=O)[C@H]2CCCN2C(=O)[C@H](CCC(N)=O)NC(=O)[C@H]([C@@H](C)O)NC(=O)[C@H](C(C)C)NC(=O)[C@H](CCCNC(=N)N)NC1=O
B5: cyclic nNOS β-hairpin peptide F111V (peptide)
peptide: cyclo(THLETTVTGDGTPKTIRVTQ[dP]GQ)
SMILES: CC[C@H](C)[C@@H]1NC(=O)[C@H]([C@@H](C)O)NC(=O)[C@H](CCCCN)NC(=O)[C@@H]2CCCN2C(=O)[C@H]([C@@H](C)O)NC(=O)CNC(=O)[C@H](CC(=O)O)NC(=O)CNC(=O)[C@H]([C@@H](C)O)NC(=O)[C@H](C(C)C)NC(=O)[C@H]([C@@H](C)O)NC(=O)[C@H]([C@@H](C)O)NC(=O)[C@H](CCC(=O)O)NC(=O)[C@H](CC(C)C)NC(=O)[C@H](Cc2c[nH]cn2)NC(=O)[C@H]([C@@H](C)O)NC(=O)[C@H](CCC(N)=O)NC(=O)CNC(=O)[C@H]2CCCN2C(=O)[C@H](CCC(N)=O)NC(=O)[C@H]([C@@H](C)O)NC(=O)[C@H](C(C)C)NC(=O)[C@H](CCCNC(=N)N)NC1=O
B6: cyclic nNOS β-hairpin peptide G115R (peptide)
peptide: cyclo(THLETTFTGDRTPKTIRVTQ[dP]GQ)
SMILES: CC[C@H](C)[C@@H]1NC(=O)[C@H]([C@@H](C)O)NC(=O)[C@H](CCCCN)NC(=O)[C@@H]2CCCN2C(=O)[C@H]([C@@H](C)O)NC(=O)[C@H](CCCNC(=N)N)NC(=O)[C@H](CC(=O)O)NC(=O)CNC(=O)[C@H]([C@@H](C)O)NC(=O)[C@H](Cc2ccccc2)NC(=O)[C@H]([C@@H](C)O)NC(=O)[C@H]([C@@H](C)O)NC(=O)[C@H](CCC(=O)O)NC(=O)[C@H](CC(C)C)NC(=O)[C@H](Cc2c[nH]cn2)NC(=O)[C@H]([C@@H](C)O)NC(=O)[C@H](CCC(N)=O)NC(=O)CNC(=O)[C@H]2CCCN2C(=O)[C@H](CCC(N)=O)NC(=O)[C@H]([C@@H](C)O)NC(=O)[C@H](C(C)C)NC(=O)[C@H](CCCNC(=N)N)NC1=O
B7: cyclic nNOS β-hairpin peptide H106E (peptide)
peptide: cyclo(TELETTFTGDGTPKTIRVTQ[dP]GQ)
SMILES: CC[C@H](C)[C@@H]1NC(=O)[C@H]([C@@H](C)O)NC(=O)[C@H](CCCCN)NC(=O)[C@@H]2CCCN2C(=O)[C@H]([C@@H](C)O)NC(=O)CNC(=O)[C@H](CC(=O)O)NC(=O)CNC(=O)[C@H]([C@@H](C)O)NC(=O)[C@H](Cc2ccccc2)NC(=O)[C@H]([C@@H](C)O)NC(=O)[C@H]([C@@H](C)O)NC(=O)[C@H](CCC(=O)O)NC(=O)[C@H](CC(C)C)NC(=O)[C@H](CCC(=O)O)NC(=O)[C@H]([C@@H](C)O)NC(=O)[C@H](CCC(N)=O)NC(=O)CNC(=O)[C@H]2CCCN2C(=O)[C@H](CCC(N)=O)NC(=O)[C@H]([C@@H](C)O)NC(=O)[C@H](C(C)C)NC(=O)[C@H](CCCNC(=N)N)NC1=O
B8: cyclic nNOS β-hairpin peptide H106F (peptide)
peptide: cyclo(TFLETTFTGDGTPKTIRVTQ[dP]GQ)
SMILES: CC[C@H](C)[C@@H]1NC(=O)[C@H]([C@@H](C)O)NC(=O)[C@H](CCCCN)NC(=O)[C@@H]2CCCN2C(=O)[C@H]([C@@H](C)O)NC(=O)CNC(=O)[C@H](CC(=O)O)NC(=O)CNC(=O)[C@H]([C@@H](C)O)NC(=O)[C@H](Cc2ccccc2)NC(=O)[C@H]([C@@H](C)O)NC(=O)[C@H]([C@@H](C)O)NC(=O)[C@H](CCC(=O)O)NC(=O)[C@H](CC(C)C)NC(=O)[C@H](Cc2ccccc2)NC(=O)[C@H]([C@@H](C)O)NC(=O)[C@H](CCC(N)=O)NC(=O)CNC(=O)[C@H]2CCCN2C(=O)[C@H](CCC(N)=O)NC(=O)[C@H]([C@@H](C)O)NC(=O)[C@H](C(C)C)NC(=O)[C@H](CCCNC(=N)N)NC1=O
B9: cyclic nNOS β-hairpin peptide H106Y (peptide)
peptide: cyclo(TYLETTFTGDGTPKTIRVTQ[dP]GQ)
SMILES: CC[C@H](C)[C@@H]1NC(=O)[C@H]([C@@H](C)O)NC(=O)[C@H](CCCCN)NC(=O)[C@@H]2CCCN2C(=O)[C@H]([C@@H](C)O)NC(=O)CNC(=O)[C@H](CC(=O)O)NC(=O)CNC(=O)[C@H]([C@@H](C)O)NC(=O)[C@H](Cc2ccccc2)NC(=O)[C@H]([C@@H](C)O)NC(=O)[C@H]([C@@H](C)O)NC(=O)[C@H](CCC(=O)O)NC(=O)[C@H](CC(C)C)NC(=O)[C@H](Cc2ccc(O)cc2)NC(=O)[C@H]([C@@H](C)O)NC(=O)[C@H](CCC(N)=O)NC(=O)CNC(=O)[C@H]2CCCN2C(=O)[C@H](CCC(N)=O)NC(=O)[C@H]([C@@H](C)O)NC(=O)[C@H](C(C)C)NC(=O)[C@H](CCCNC(=N)N)NC1=O
B10: cyclic nNOS β-hairpin peptide I120R (peptide)
peptide: cyclo(THLETTFTGDGTPKTRRVTQ[dP]GQ)
SMILES: CC(C)C[C@@H]1NC(=O)[C@H](Cc2c[nH]cn2)NC(=O)[C@H]([C@@H](C)O)NC(=O)[C@H](CCC(N)=O)NC(=O)CNC(=O)[C@H]2CCCN2C(=O)[C@H](CCC(N)=O)NC(=O)[C@H]([C@@H](C)O)NC(=O)[C@H](C(C)C)NC(=O)[C@H](CCCNC(=N)N)NC(=O)[C@H](CCCNC(=N)N)NC(=O)[C@H]([C@@H](C)O)NC(=O)[C@H](CCCCN)NC(=O)[C@@H]2CCCN2C(=O)[C@H]([C@@H](C)O)NC(=O)CNC(=O)[C@H](CC(=O)O)NC(=O)CNC(=O)[C@H]([C@@H](C)O)NC(=O)[C@H](Cc2ccccc2)NC(=O)[C@H]([C@@H](C)O)NC(=O)[C@H]([C@@H](C)O)NC(=O)[C@H](CCC(=O)O)NC1=O
B11: cyclic nNOS β-hairpin peptide I120Y (peptide)
peptide: cyclo(THLETTFTGDGTPKTYRVTQ[dP]GQ)
SMILES: CC(C)C[C@@H]1NC(=O)[C@H](Cc2c[nH]cn2)NC(=O)[C@H]([C@@H](C)O)NC(=O)[C@H](CCC(N)=O)NC(=O)CNC(=O)[C@H]2CCCN2C(=O)[C@H](CCC(N)=O)NC(=O)[C@H]([C@@H](C)O)NC(=O)[C@H](C(C)C)NC(=O)[C@H](CCCNC(=N)N)NC(=O)[C@H](Cc2ccc(O)cc2)NC(=O)[C@H]([C@@H](C)O)NC(=O)[C@H](CCCCN)NC(=O)[C@@H]2CCCN2C(=O)[C@H]([C@@H](C)O)NC(=O)CNC(=O)[C@H](CC(=O)O)NC(=O)CNC(=O)[C@H]([C@@H](C)O)NC(=O)[C@H](Cc2ccccc2)NC(=O)[C@H]([C@@H](C)O)NC(=O)[C@H]([C@@H](C)O)NC(=O)[C@H](CCC(=O)O)NC1=O

Each binder was assayed against T1, (7× His)-PSD-95-PDZ2 wild type (UniProt P78352 160-246) (assay: FP competition).
T1 construct: domain: PDZ2; recombinant from E. coli; also called PSD-95-PDZ2 WT; not shown: 7x His tag
T1 sequence (P78352 160-246): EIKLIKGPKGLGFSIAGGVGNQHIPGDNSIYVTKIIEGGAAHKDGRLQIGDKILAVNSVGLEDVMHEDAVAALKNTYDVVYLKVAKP

Binder | Ki [µM] | Relative Ki (Ki mut/Ki WT)
B1 | 2.59 | 1.73
B2 | 2.87 | 1.91
B3 | 2.4 | 1.6
B4 | 0.99 | 0.66
B5 | 77.4 | 51.6
B6 | 0.75 | 0.5
B7 | 6.19 | 4.13
B8 | 1.19 | 0.79
B9 | 1.18 | 0.79
B10 | 1.76 | 1.17
B11 | 1.6 | 1.07

From US20230220021A1 (UNIVERSITY OF COPENHAGEN, published 2023)
